Data reported in article PMC6168863.

Biological target: SsaL-3Flag (Salmonella enterica serovar Typhimurium (strain 12023))
Assay: co-IP; Bacteria grown 6 h in MgM-MES at pH 5.0; lysate in PBS, 1 mM PMSF, 0.5% Triton X-100; SsaL-3Flag precipitated with anti-Flag M2 affinity agarose for 3 h at 4°C and eluted with 3Flag peptide; SsaV detected with anti-His antibody. Strains: wt background, ssaV^V632D, ΔssaP (with or without pssaP), and ΔssaU expressing SsaU^N262A

Sequence of SsaV-6×His (P74856 whole entry): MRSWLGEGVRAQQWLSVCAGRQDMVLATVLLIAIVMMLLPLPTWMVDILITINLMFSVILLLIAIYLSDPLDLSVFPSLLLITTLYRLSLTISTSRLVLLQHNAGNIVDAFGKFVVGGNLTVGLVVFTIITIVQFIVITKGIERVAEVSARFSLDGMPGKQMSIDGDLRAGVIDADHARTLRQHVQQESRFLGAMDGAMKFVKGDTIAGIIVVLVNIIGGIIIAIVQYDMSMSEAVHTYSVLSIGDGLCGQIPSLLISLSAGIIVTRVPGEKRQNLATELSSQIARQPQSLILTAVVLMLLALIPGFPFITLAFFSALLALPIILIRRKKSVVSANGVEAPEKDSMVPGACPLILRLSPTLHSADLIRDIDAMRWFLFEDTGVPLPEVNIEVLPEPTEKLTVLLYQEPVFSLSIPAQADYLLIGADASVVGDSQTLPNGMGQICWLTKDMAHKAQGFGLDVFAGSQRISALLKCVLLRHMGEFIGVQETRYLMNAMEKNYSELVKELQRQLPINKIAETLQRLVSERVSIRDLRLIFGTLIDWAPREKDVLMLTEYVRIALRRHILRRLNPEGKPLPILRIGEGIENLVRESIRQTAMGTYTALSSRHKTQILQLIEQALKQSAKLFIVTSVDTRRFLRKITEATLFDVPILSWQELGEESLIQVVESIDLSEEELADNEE

“SsaV-6×His (from UniProt P74856 1-681) (natural protein)” gave a percent decrease of SsaV-6×His co-immunoprecipitated with SsaL-3Flag in the absence of SsaP (ΔssaP) of 43.6% and a percent decrease of SsaV-6×His co-immunoprecipitated with SsaL-3Flag in the absence of normally cleaved SsaU (ΔssaU expressing SsaU^N262A) of 46.2%.
